# Measurements as given in PMC9097460, “The molecular basis of spinocerebellar ataxia type 48 caused by a de novo mutation in the ubiquitin ligase CHIP” (The Journal of Biological Chemistry, 2022).
# Biological target: the molecule itself
# Experiment: SEC + other: mass photometry; recombinant CHIP run on size-exclusion chromatography, fractions analysed by mass photometry at 30 nM in 20 mM Hepes pH 8, 200 mM NaCl, 1 mM DTT
protein,measurement,value
"CHIP A52G point mutant, recombinant (enzyme, human, UniProt Q9UNE7 1-303, looked up, CHIP (STUB1 product) with the patient's de novo A52G mutation (c.155C > G), introduced by QuikChange into the pGEX6p-1 construct; Mutation found in a patient with SCA48; also called A52G mutant; source: E. coli, purified) MKGKEEKEGGARLGAGGGSPEKSPSAQELKEQGNRLFVGRKYPEAAACYGRGITRNPLVAVYYTNRALCYLKMQQHEQALADCRRALELDGQSVKAHFFLGQCQLEMESYDEAIANLQRAYSLAKEQRLNFGDDIPSALRIAKKKRWNSIEERRIHQESELHSYLSRLIAAERERELEECQRNHEGDEDDSHVRAQQACIEAKHDKYMADMDELFSQVDEKRKKRDIPDYLCGKISFELMREPCITPSGITYDRKDIEEHLQRVGHFDPVTRSPLTQEQLIPNLAMKEVIDAFISENGWVEDY",binding result,binds
